Results published in US20240092919A1.
Residue numbers refer to the chain shown, from its start.

B1: A022600102 (protein)
chain: DVQLVESGGGVVQPGGSLRLSCVASGYVHKINFYGWYRQAPGKEREKVAHISIGDQTDYADSAKGRFTISRDESKNTVYLQMNSLRPEDTALYYCRALSRIWPYDYWGQGTLVTVSSAAAEVQLVESGGGLVQPGGSLRLSCVASGFTFSSFAMTWVRRPPGKGLEWVATITNGGVTSYRDSVKGRFTISRDNAKNTLYLEMTSLNPEDTAVYICANARRTGPRAPTDIGSYRGQGTLVTVSSGGGGSGGGGSGGGGSGGGGSGGGGSGGGGSGGGGSEVQLVESGGGVVQPGGSLRLSCAASGFTFRSFGMSWVRQAPGKGPEWVSSISGSGSDTLYADSVKGRFTISRDNSKNTLYLQMNSLRPEDTALYYCTIGGSLSRSSQGTLVTVSSA
B2: A022600122 (protein)
chain: DVQLVESGGGVVQPGGSLRLSCVASGYVHKINFYGWYRQAPGKEREKVAHISIGDQTDYADSAKGRFTISRDESKNTVYLQMNSLRPEDTALYYCRALSRIWPYDYWGQGTLVTVSSGGGGSEVQLVESGGGLVQPGGSLRLSCVASGFTFSSFAMTWVRRPPGKGLEWVATITNGGVTSYRDSVKGRFTISRDNAKNTLYLEMTSLNPEDTAVYICANARRTGPRAPTDIGSYRGQGTLVTVSSGGGGSGGGGSGGGGSGGGGSGGGGSGGGGSGGGGSEVQLVESGGGLVQPGGSLRLSCVASGSIFRSVFSSSTMEWYRQPPGKKRELVARIAPGDGTNYGALYADSVKGRFTISRDDAKKTVDLQMNSLKPEDTGVYFCASGVAWGQGTLVTVSSGGGGSGGGGSGGGGSGGGGSGGGGSGGGGSGGGGSEVQLVESGGGVVQPGGSLRLSCAASGFTFRSFGMSWVRQAPGKGPEWVSSISGSGSDTLYADSVKGRFTISRDNSKNTLYLQMNSLRPEDTALYYCTIGGSLSRSSQGTLVTVSSA
B3: A022600131 (protein)
chain: DVQLVESGGGVVQPGGSLRLSCVASGYVHKINFYGWYRQAPGKEREKVAHISIGDQTDYADSAKGRFTISRDESKNTVYLQMNSLRPEDTALYYCRALSRIWPYDYWGQGTLVTVSSGGGGSEVQLVESGGGLVQPGGSLRLSCVASGFTFSSFAMTWVRRPPGKGLEWVATITNGGVTSYRDSVKGRFTISRDNAKNTLYLEMTSLNPEDTAVYICANARRTGPRAPTDIGSYRGQGTLVTVSSGGGGSGGGGSGGGGSGGGGSEVQLVESGGGLVQPGGSLRLSCVASGSIFRSVFSSSTMEWYRQPPGKKRELVARIAPGDGTNYGALYADSVKGRFTISRDDAKKTVDLQMNSLKPEDTGVYFCASGVAWGQGTLVTVSSGGGGSGGGGSGGGGSGGGGSGGGGSGGGGSGGGGSEVQLVESGGGVVQPGGSLRLSCAASGFTFRSFGMSWVRQAPGKGPEWVSSISGSGSDTLYADSVKGRFTISRDNSKNTLYLQMNSLRPEDTALYYCTIGGSLSRSSQGTLVTVSSA
B4: A022600132 (protein)
chain: DVQLVESGGGVVQPGGSLRLSCVASGYVHKINFYGWYRQAPGKEREKVAHISIGDQTDYADSAKGRFTISRDESKNTVYLQMNSLRPEDTALYYCRALSRIWPYDYWGQGTLVTVSSGGGGSEVQLVESGGGLVQPGGSLRLSCVASGFTFSSFAMTWVRRPPGKGLEWVATITNGGVTSYRDSVKGRFTISRDNAKNTLYLEMTSLNPEDTAVYICANARRTGPRAPTDIGSYRGQGTLVTVSSGGGGSGGGSEVQLVESGGGLVQPGGSLRLSCVASGSIFRSVFSSSTMEWYRQPPGKKRELVARIAPGDGTNYGALYADSVKGRFTISRDDAKKTVDLQMNSLKPEDTGVYFCASGVAWGQGTLVTVSSGGGGSGGGGSGGGGSGGGGSGGGGSGGGGSGGGGSEVQLVESGGGVVQPGGSLRLSCAASGFTFRSFGMSWVRQAPGKGPEWVSSISGSGSDTLYADSVKGRFTISRDNSKNTLYLQMNSLRPEDTALYYCTIGGSLSRSSQGTLVTVSSA
B5: A022600133 (protein)
chain: DVQLVESGGGVVQPGGSLRLSCVASGYVHKINFYGWYRQAPGKEREKVAHISIGDQTDYADSAKGRFTISRDESKNTVYLQMNSLRPEDTALYYCRALSRIWPYDYWGQGTLVTVSSGGGGSEVQLVESGGGLVQPGGSLRLSCVASGSIFRSVFSSSTMEWYRQPPGKKRELVARIAPGDGTNYGALYADSVKGRFTISRDDAKKTVDLQMNSLKPEDTGVYFCASGVAWGQGTLVTVSSGGGGSGGGGSGGGGSGGGGSGGGGSGGGGSGGGGSEVQLVESGGGLVQPGGSLRLSCVASGFTFSSFAMTWVRRPPGKGLEWVATITNGGVTSYRDSVKGRFTISRDNAKNTLYLEMTSLNPEDTAVYICANARRTGPRAPTDIGSYRGQGTLVTVSSGGGGSGGGGSGGGGSGGGGSGGGGSGGGGSGGGGSEVQLVESGGGVVQPGGSLRLSCAASGFTFRSFGMSWVRQAPGKGPEWVSSISGSGSDTLYADSVKGRFTISRDNSKNTLYLQMNSLRPEDTALYYCTIGGSLSRSSQGTLVTVSSA
B6: A022600134 (protein)
chain: DVQLVESGGGVVQPGGSLRLSCVASGYVHKINFYGWYRQAPGKEREKVAHISIGDQTDYADSAKGRFTISRDESKNTVYLQMNSLRPEDTALYYCRALSRIWPYDYWGQGTLVTVSSGGGGSEVQLVESGGGLVQPGGSLRLSCVASGSIFRSVFSSSTMEWYRQPPGKKRELVARIAPGDGTNYGALYADSVKGRFTISRDDAKKTVDLQMNSLKPEDTGVYFCASGVAWGQGTLVTVSSGGGGSGGGGSGGGGSGGGGSEVQLVESGGGLVQPGGSLRLSCVASGFTFSSFAMTWVRRPPGKGLEWVATITNGGVTSYRDSVKGRFTISRDNAKNTLYLEMTSLNPEDTAVYICANARRTGPRAPTDIGSYRGQGTLVTVSSGGGGSGGGGSGGGGSGGGGSGGGGSGGGGSGGGGSEVQLVESGGGVVQPGGSLRLSCAASGFTFRSFGMSWVRQAPGKGPEWVSSISGSGSDTLYADSVKGRFTISRDNSKNTLYLQMNSLRPEDTALYYCTIGGSLSRSSQGTLVTVSSA
B7: A022600135 (protein)
chain: DVQLVESGGGVVQPGGSLRLSCVASGYVHKINFYGWYRQAPGKEREKVAHISIGDQTDYADSAKGRFTISRDESKNTVYLQMNSLRPEDTALYYCRALSRIWPYDYWGQGTLVTVSSGGGGSEVQLVESGGGLVQPGGSLRLSCVASGSIFRSVFSSSTMEWYRQPPGKKRELVARIAPGDGTNYGALYADSVKGRFTISRDDAKKTVDLQMNSLKPEDTGVYFCASGVAWGQGTLVTVSSGGGGSGGGSEVQLVESGGGLVQPGGSLRLSCVASGFTFSSFAMTWVRRPPGKGLEWVATITNGGVTSYRDSVKGRFTISRDNAKNTLYLEMTSLNPEDTAVYICANARRTGPRAPTDIGSYRGQGTLVTVSSGGGGSGGGGSGGGGSGGGGSGGGGSGGGGSGGGGSEVQLVESGGGVVQPGGSLRLSCAASGFTFRSFGMSWVRQAPGKGPEWVSSISGSGSDTLYADSVKGRFTISRDNSKNTLYLQMNSLRPEDTALYYCTIGGSLSRSSQGTLVTVSSA
B8: A022600167 (protein)
chain: DVQLVESGGGVVQPGGSLRLSCVASGYVHKINFYGWYRQAPGKEREKVAHISIGDQTDYADSAKGRFTISRDESKNTVYLQMNSLRPEDTAAYYCRALSRIWPYDYWGQGTLVTVSSGGGGSEVQLVESGGGLVQPGGSLRLSCVASGFTFSSFAMTWVRRPPGKGLEWVATITNGGVTSYRDSVKGRFTISRDNAKNTLYLEMTSLNPEDTAVYICANARRTGPRAPTDIGSYRGQGTLVTVSSGGGGSGGGGSGGGGSGGGGSGGGGSGGGGSGGGGSEVQLVESGGGVVQPGGSLRLSCAASGFTFRSFGMSWVRQAPGKGPEWVSSISGSGSDTLYADSVKGRFTISRDNSKNTLYLQMNSLRPEDTALYYCTIGGSLSRSSQGTLVTVSSA
B9: A022600168 (protein)
chain: B2 chain with L92A

Molecular target: human GPC3 on cells (human) (UniProt P51654)
Assay: cell-based or functional assay

Row | Binder | IC50 (M), Incucyte human TDC HepG2-Nuclight green assay, E:T 15:1, 72 h | Max % Killing, Incucyte human TDC HepG2-Nuclight green assay, 72 h | HepG2 on Incucyte IC50 (M), human TDC, E:T 15:1, 60 h | HepG2 on Incucyte Max % killing, 60 h | Huh7 on xCELLigence IC50 (M), human TDC, E:T 15:1, 60 h | Huh7 on xCELLigence Max % killing, 60 h | IC50 (M), Incucyte human TDC HepG2-Nuclight green assay, E:T 15:1 (Step 2) | Max % Killing, Incucyte human TDC HepG2-Nuclight green assay (Step 2) | IC50 (M), xCELLigence human TDC assay on Hep-G2, E:T 15:1, 60 h | IC50 (M), xCELLigence human TDC assay on Huh-7, E:T 15:1, 60 h | IC50 (M), xCELLigence human TDC assay on NCI-H661, E:T 15:1, 75 h
1 | B1 | 1.72e-09 M | 94% | – | – | – | – | – | – | – | – | –
2 | B2 | – | – | 5.3e-10 M | 93% | 2.61e-10 M | 101% | 4.45e-10 M | 92% | – | – | –
3 | B3 | – | – | – | – | – | – | 4.44e-10 M | 94% | – | – | –
4 | B4 | – | – | 6.83e-10 M | 83% | 2.9e-10 M | 95% | 7.02e-10 M | 91% | – | – | –
5 | B5 | – | – | – | – | – | – | 4.08e-10 M | 92% | – | – | –
6 | B6 | – | – | – | – | – | – | 5.28e-10 M | 92% | – | – | –
7 | B7 | – | – | – | – | – | – | 6.11e-10 M | 91% | – | – | –
8 | B8 | – | – | 1.92e-09 M | 98% | 8.61e-09 M | 91% | – | – | 9.2e-11 M | 4.7e-10 M | 1.8e-10 M
9 | B9 | – | – | 3.67e-10 M | 103% | 1.98e-10 M | 107% | – | – | 7.3e-11 M | 2.4e-11 M | 1.4e-10 M
